From publication PMC5300155, “Biochemical and biophysical investigations of the interaction between human glucokinase and pro-apoptotic BAD” (PLoS ONE, 2017)

Test system: glucokinase (GCK)
Test: Chemical cross-linking (dimethyl pimelimidate) with GCK
Type: binding, human
Conditions: DMP, 50-fold molar excess, room temperature 1 h; 1:1 mixture, 40 μM protein; SDS-PAGE
Method: Protein samples were cross-linked with dimethyl pimelimidate (DMP). Aqueous stocks of cross-linkers were added to protein samples in a 50-fold molar excess and incubated at room temperature 1 h. Mixtures contained 20 μM protein (GCK or BAD) or 40 μM protein (1:1 mixture of glucokinase and BAD) in BAD buffer (0.1 M Tris, 0.1 M KCl, 0.5 M arginine, 2.5 mM CHAPS, 5 mM TCEP, 10% glycerol, pH 8.5). Reactions were immediately separated on SDS-PAGE and visualized with Coomassie blue staining.

B1: BAD-GST: recombinant human BAD with N-terminal hexahistidine tag and C-terminal GST fusion, TEV consensus sequence between (protein)
chain: MFQIPEFEPSEQEDSSSAERGLGPSPAGDGPSGSGKHHRQAPGLLWDASHQQEQPTSSSHHGGAGAVEIRSRHSSYPAGTEDDEGMGEEPSPFRGRSRSAPPNLWAAQRYGRELRRMSDEFVDSFKKGLPRPKSAGTATQMRQSSSWTRVFQSWWDRNLGRGSSAPSQ
modifications: left off: His6, N-terminal, state not stated | GST, C-terminal, kept
- Complex with GCK by chemical cross-linking: does not support the formation of a BAD-GST:GCK complex
